Results as given in patent publication US20210171652A1 (University of Pennsylvania, published 2021).

T1: Band 3 / glycophorin A (Wright b, Wrb epitope) on human red blood cells (human, UniProt P02724 20-150)
T1 construct: whole, on cells; also called Band3/GPA; AE1
T1 sequence 1: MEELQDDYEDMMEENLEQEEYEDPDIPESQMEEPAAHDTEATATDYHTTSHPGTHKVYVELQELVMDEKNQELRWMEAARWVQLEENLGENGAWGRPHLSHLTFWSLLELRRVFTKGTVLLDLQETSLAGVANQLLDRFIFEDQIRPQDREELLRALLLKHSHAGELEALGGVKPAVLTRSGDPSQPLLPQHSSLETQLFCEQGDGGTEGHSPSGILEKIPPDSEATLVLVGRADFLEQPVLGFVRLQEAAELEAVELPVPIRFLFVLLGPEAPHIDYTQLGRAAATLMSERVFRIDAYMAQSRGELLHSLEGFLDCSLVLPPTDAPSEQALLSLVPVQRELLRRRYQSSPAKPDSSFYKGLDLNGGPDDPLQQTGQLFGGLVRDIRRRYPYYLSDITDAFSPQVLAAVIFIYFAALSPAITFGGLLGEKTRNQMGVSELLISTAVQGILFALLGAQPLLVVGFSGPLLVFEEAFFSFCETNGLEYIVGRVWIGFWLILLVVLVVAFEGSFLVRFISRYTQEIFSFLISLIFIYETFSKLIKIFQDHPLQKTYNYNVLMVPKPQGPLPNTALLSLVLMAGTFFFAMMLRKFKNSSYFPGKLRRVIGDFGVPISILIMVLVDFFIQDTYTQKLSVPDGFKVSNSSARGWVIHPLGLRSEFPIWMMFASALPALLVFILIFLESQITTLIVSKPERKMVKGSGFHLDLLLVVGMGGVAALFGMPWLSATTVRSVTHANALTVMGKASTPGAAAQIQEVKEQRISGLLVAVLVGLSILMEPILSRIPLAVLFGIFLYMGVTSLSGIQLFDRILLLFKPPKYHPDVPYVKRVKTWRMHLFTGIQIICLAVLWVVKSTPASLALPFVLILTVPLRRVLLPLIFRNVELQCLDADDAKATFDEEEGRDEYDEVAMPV
T1 sequence 2: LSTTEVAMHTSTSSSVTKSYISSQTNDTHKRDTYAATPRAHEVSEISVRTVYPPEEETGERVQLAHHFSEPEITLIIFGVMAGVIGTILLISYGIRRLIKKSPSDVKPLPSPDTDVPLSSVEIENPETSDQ

T2: human RhCE protein (RHCE; Rh17/Hr0 epitope) on human red blood cells (human, UniProt P18577 2-417)
T2 construct: Target on intact human RBCs of donors
T2 chain: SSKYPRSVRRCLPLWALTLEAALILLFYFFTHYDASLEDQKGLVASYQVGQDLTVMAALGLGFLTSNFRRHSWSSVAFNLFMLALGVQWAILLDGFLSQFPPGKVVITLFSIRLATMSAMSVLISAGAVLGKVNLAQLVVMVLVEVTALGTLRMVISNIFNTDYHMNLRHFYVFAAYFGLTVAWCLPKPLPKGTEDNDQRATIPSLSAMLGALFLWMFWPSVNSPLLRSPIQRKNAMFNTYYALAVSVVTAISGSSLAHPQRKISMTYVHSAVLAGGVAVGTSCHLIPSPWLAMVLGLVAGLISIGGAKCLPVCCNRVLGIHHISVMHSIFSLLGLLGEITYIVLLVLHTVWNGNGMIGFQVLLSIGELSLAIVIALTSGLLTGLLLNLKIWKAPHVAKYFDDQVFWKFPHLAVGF

B1: aWrb scFv (anti-Band3/GPA), clone KP2-23 (scFv)
scFv: EVQLLESGPGLVKPSETLSLTCTVSGSSLSSAYGWNWIRQPPGKGLEWIGSIGGSRDNTNYNPSLKRRVTISKDTSKNQFSLKLKSVTAADTAVYYCAQRGAYGYSYFDYWGQGVLVAVSSGGGGSGGGGSGGGGSAAELTLTQSPATLSLSPGETATLSCRASQTVGRNLAWYQQRPGQAPNLLVHSAYFRATGIPDRFSGSGSGTDFTLTISSLEPEDAGVYHCQQYNDLLPLTFGGGTKVEIK
modifications: radio-iodinated (125I) or amine-labelled with AlexaFluor 488/647 in the binding assays; sites not stated
notes: scFv produced as H2N-VH-(GGGGS)3-VL-FLAGx3-COOH in E. coli periplasm; also called anti-Wrb scFv; KP2-23 scFv; not shown: C-terminal FLAGx3 tag
B2: linear peptide corresponding to the 6th extracellular loop of human RhD (peptide, UniProt Q02161 346-360, looked up)
peptide: LLVLDTVGAGNGMIG
notes: domain: 6th extracellular loop; Negative control peptide; also called RhD peptide (negative control)
B3: KP3-17 (anti-Rh17), as used in Example 8 (antibody, V domains shown)
VH: EVQLLESGPGLLKPSETLSLTCAVSGAPISNYWWSWIRQSPGKGLEWIGEIDGSIYTTYYNPSLKSRVAISKDTSKNRLSLKLTSVTAADTAVYYCAREGQNPLVPTYGSTGFGLDFWGHGLAVTVSS
VL: AAELTQSPSSLSASVGDRVTITCQASQGISSWLAWYQQKPGKAPKLLIYKASSLQSGVPSRFSGSGSGTDFTLTISSLQSEDFATYYCQQYSSSPRTFGQGTKVEIK

How the values were obtained:
[1] = target: T1, Band 3 / glycophorin A (Wright b, Wrb …); assay: direct binding of 125I-labelled protein to human RBCs, 4 h at 37 C
Procedure: (§1) Recombinant proteins were radiolabeled with Na¹²⁵I (Perkin Elmer, Exton, Pa.) using pre-formulated iodination reagent (Pierce Iodination Reagent, Thermo Fisher Scientific, Carlsbad, Calif.) per the manufacturer's protocol. Radiochemical purity was verified by instant thin layer chromatography on silica and was typically >95%. Radiolabeled proteins were added to human RBCs at 0.02% hematocrit in PBS with 2% human AB serum. Binding was allowed to reach equilibrium over 4 hours at 37 degrees C. After binding, cell suspensions were rapidly washed at least four times with cold PBS. The resulting cell pellet was counted using a Perkin Elmer Wizard2 gamma counting system. Dissociation of the fusion proteins was assessed using RBCs saturated with radiolabeled proteins, washing unbound ligands, and placing in dilute suspensions prior to measurement of bound ligand at specified time points. Similar binding experiments were performed with fluorescently-labeled recombinant proteins and cells were analyzed by flow cytometry (Accuri C6, BD Biosciences, San Jose, Calif.). Fluorescently labeled proteins were produced by reaction with amine-reactive derivatives of fluorescent dyes AlexaFlour488 and AlexaFlour647 (typically 10- to 20-fold excess at pH 8) and purified using 10,000 MWCO centrifugal filter devices (EMD Milipore, Billerica, Mass.).

[2] = target: T1, Band 3 / glycophorin A (Wright b, Wrb …); assay: dissociation of 125I-labelled protein from saturated human RBCs
Procedure: as §1

[3] = target: B3; assay: peptide competition, flow cytometry on human erythrocytes; RhD loop peptide as negative control
Description: Flow cytometry was used to assess the binding of anti-Rh17 to human erythrocytes in the presence and absence of linear peptides corresponding to the amino acid sequence 6th extracellular loop of human RhD (negative control) and human RhCE. […] (* denotes p<0.05 by 1-way ANOVA with Tukey's post-hoc test).
Rh17 recognizes an epitope present in the 6th extracellular loop of human RhCE. Flow cytometry was used to assess the binding of Rh17 to human erythrocytes in the presence and absence of linear peptides corresponding to the amino acid sequence 6th extracellular loop of human RhD (negative control) and human RhCE (FIG. 26).

[4] = target: T2, human RhCE protein (RHCE; Rh17/Hr0 …); assay: Western blot of reduced, denatured proteins from human erythrocyte ghosts
Procedure: (§2) A Western blot was performed to assess the binding of KP3-17 (anti-Rh17) to proteins extracted from mouse and human erythrocyte ghosts. Because proteins were denatured in reducing SDS-PAGE buffer prior to gel electrophoresis, the presence of binding is due to interaction with linear, and not conformational, epitopes. This is in contrast to anti-RhCE mAbs described by other groups, which recognize conformational epitopes.
as §2, with “Rh17” for “KP3-17 (anti-Rh17)”, “ghosts (FIG. 25).” for “ghosts.”

Binder: B1
Kd [1]: 21.3 nM | koff [2]: 2.9e-05 s⁻¹

Binder: B2
binding result [3]: no binding

Binder: B3
binding result [4]: binds
